Patent CN112409487A (NINGBO SAIPO BIOTECHNOLOGY CO LTD, dated 2021)

Molecular target: T1, 人可溶性转铁蛋白受体校准品 (human, UniProt P02786 101-760, limits assumed)
T1 construct: also called sTfR校准品
Experiment: double-antibody sandwich latex immunoturbidimetry on the calibrator, OD570nm

T1 sequence (P02786 101-760 limits assumed): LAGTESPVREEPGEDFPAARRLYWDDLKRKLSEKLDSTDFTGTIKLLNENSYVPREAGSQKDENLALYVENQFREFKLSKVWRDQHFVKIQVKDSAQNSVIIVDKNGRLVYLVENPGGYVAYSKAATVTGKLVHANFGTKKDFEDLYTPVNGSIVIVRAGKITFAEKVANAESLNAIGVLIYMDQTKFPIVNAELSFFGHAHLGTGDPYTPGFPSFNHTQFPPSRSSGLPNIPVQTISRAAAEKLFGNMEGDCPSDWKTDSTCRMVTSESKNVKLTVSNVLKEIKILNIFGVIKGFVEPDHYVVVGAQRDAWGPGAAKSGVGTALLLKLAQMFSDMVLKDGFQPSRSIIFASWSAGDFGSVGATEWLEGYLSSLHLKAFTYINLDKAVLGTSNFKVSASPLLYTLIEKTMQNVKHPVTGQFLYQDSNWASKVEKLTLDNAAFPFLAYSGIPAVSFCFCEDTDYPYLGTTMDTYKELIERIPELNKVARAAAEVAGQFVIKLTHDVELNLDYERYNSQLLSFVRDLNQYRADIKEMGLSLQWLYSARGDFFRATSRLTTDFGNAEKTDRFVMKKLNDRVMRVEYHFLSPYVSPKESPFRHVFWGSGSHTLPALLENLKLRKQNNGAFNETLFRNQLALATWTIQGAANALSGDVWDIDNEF

- binding result: binds
B1: 鼠单克隆抗体8E11 (antibody, V domains shown)
VH: QVQLQQSGAELVRPGTSVKISCKASGYAFTNYWLGWVKQRPGRGLEWIGDIFPGSSNTYYNEKFKGKASLTADKSSSTAYMHLSSLTSEDSAVYFCARVKDYYAMGYWGQGTSVTVSS
VL: ENVLTQSPAIMSASPGEKVTMTCSASSSVSYMNWYQQKSITSPKLWIYDTFKLASGVPGRFSGSGSGNSYSLTISSMEAEDVATYYCFQGSGYPYTFGGGTKLEIK
notes: Mouse hybridoma monoclonal antibody, purified from ascites on protein G and detected with goat anti-mouse IgG; It was coupled to latex particles in the turbidimetric assay; also called 第一单克隆抗体
